Changes are numbered by the printed parent chain. Names and notes keep the numbering of the source. Like-named read-outs stand apart in the source and are kept apart here.
B1: HpMutS2-E413A (enzyme)
chain: MSDAPKRSLNPTLMMNNNNTPPKPLEESLDLKEFIALFKTFFAKERDTIALENDLKQTFTYLNEVDAIGLPTPKSVKESDLIIIKLTKLGTLHLDEIFEIVKRLHYIVVLQNAFKTFTHLKFHERLNAIVLPPFFNDLIALFDDEGKIKQGANATLDALNESLNRLKKESVKIIHHYARSKELAPYLVDTQSHLKHGYECLLLKSGFSGAIKGVVLERSANGYFYLLPESAQKIAQKIAQIGNEIDCCIVEMCQTLSHSLQKHLLFLKFLFKEFDFLDSLQARLNFAKAYNLEFVMPSFTQKKMILENFSHPILKEPKPLNLKFEKSMLAVTGVNAGGKTMLLKSLLSAAFLSKHLIPMKINAHHSIIPYFKEIHAIINDPQNSANNISTFAGRMKQFSALLSKENMLLGVDAIELGTDADEASSLYKTLLEKLLKQNNQIIITTHHKRLSVLMAENKEVELLAALYDEEKERPTYTFLKGVIGKSYAFETALRYGVPHFLIEKAKTFYGEDKEKLNVLIENSSALERELKQKNEHLENALKEQEYLKNAWLLEMEKQKEIFHNKKLELEKSYQQALNILKSEVASKDTSSMHKEIHKASEILSKHKTNQEIPQIITNFQANEKARYKNESVLIVQILDKGYYWIETELGMRLKAHGSLLKKIQKPPKNKFKPPKTTIPKPKEASLRLDLRGQRSEEALDLLDAFLNDALLGGFEEVLICHGKGSGILEKFVKEFLKNHPKVVSFSDAPINLGGSGVKIVKL
notes: also called Walker-B mutant
B2: HpMutS2: Helicobacter pylori MutS2 (1-762), C-terminally His6-tagged wild-type protein, nuclease and ABC ATPase (protein)
chain: B1 chain with A413E
modifications: left off: His6, C-terminal, state not stated
notes: Helicobacter pylori MutS2 (1-762), C-terminally His6-tagged wild-type protein, nuclease and ABC ATPase
B3: HpMutS2-G338R (protein)
chain: B1 chain with G338R, A413E

Experiments:
chymotrypsin = assay: Limited proteolysis with chymotrypsin; conditions: 37 °C; for effect of nucleotide pre-incubation on proteolysis: pre-incubation with ADP, ATP or ATPγS 1 mM, 15 min; for susceptibility to proteolysis compared to the wild-type protein: protein 4 μM, chymotrypsin 1.25 ng, 30 min, no nucleotide
Experimental: (§1) Fig. 4 Nucleotide and mutation induced conformational changes in HpMutS2. a Limited proteolysis. Proteins (4 μM) either free or pre-incubated with nucleotides (1 mM) were incubated with chymotrypsin (1.25 ng) for 30 min at 37 °C. All proteolysis reactions were performed in 1X buffer A lacking magnesium. Reactions were stopped by adding a protease inhibitor cocktail and the products were separated on SDS-PAGE (10 %). Lane M: Molecular weight marker. b Thermal stability profiles of wild-type HpMutS2, HpMutS2-G338R, and HpMutS2-E413A. Proteins (1 μM) dialyzed in 50 mM Tris-Cl and 100 mM NaCl were subjected to thermal denaturation and spectra were recorded at 222 nm using Jasco-815 spectropolarimeter
HpMutS2 (4 μM) was incubated with chymotrypsin (1.25 ng) or in buffer A lacking magnesium at 37 °C for 30 min. The reactions were stopped by addition of protease inhibitor cocktail (Sigma) and the proteolyzed products were separated on SDS-PAGE (10 %). Nucleotide cofactors (1 mM) were pre-incubated with the proteins for 15 min at 37 °C before addition of chymotrypsin. The heat denaturation of proteins was performed by heating them at 95 °C for 10 min. All the reactions were performed in 1X buffer A. Protein bands were detected by staining with Coomassie Brilliant Blue.

[1] = Far-UV circular dichroism spectroscopy; type: physicochemical; conditions: protein 1 μM, far-UV CD 200–300 nm
Experimental: Fig. 3 Mutation induced conformational changes in HpMutS2. a CD-spectroscopy of HpMutS2, HpMutS2-G338R, and HpMutS2-E413A. Far-UV CD spectra of proteins (1 μM) dialyzed in 50 mM Tris-Cl and 100 mM NaCl were recorded between 200–300 nm with 20 mdeg sensitivity at a scan speed of 50 nm using 2 mm path length cuvette with a bandwidth of 2 nm. The spectra were recorded using Jasco-815 spectropolarimeter. Size exclusion chromatographic analysis of b HpMutS2, c HpMutS2-G338R, and d HpMutS2-E413A was performed using Superose-6 gel filtration column at a constant flow rate of 0.3 ml/min. Approximately 150 μg of all the proteins were spun at 10,000 rpm for 10 min at 4 °C before injection. The absorbance was recorded at 280 nm
Freshly prepared proteins were dialyzed twice in buffer B for 4–6 h with at least two changes of the buffer. Far-UV CD spectra of proteins (1 μM) were obtained using a Jasco-815 spectropolarimeter equipped with a Peltier stage (Japan Spectroscopic Co., Japan) at 25 °C. The spectra were recorded between 200–300 nm with 20 mdeg sensitivity at a scan speed of 50 nm using 2 mm path length cuvette with a bandwidth of 2 nm. […] Thermal denaturation of the proteins was monitored at single wavelength (222 nm) by increasing temperature from 25 °C-80 °C. The percentage of unfolded protein was calculated by considering the protein at 25 °C as 100 % folded.

Holliday junction = assay: Electrophoretic mobility shift assay (EMSA); type: binding; conditions: for Kd: read-out: DNA binding affinity (dissociation constant); for fold reduced affinity compared to wild-type: no nucleotide
Experimental: (§2) Fig. 5 Effect of nucleotide cofactors on DNA binding activity of HpMutS2 and mutants. Electrophoretic mobility shift assays were performed by incubating radiolabeled DNA substrates (0.16 nM) with increasing concentrations of proteins as described in Methods section. Nucleotides (1 mM) were added separately to the reaction mixtures. After incubation of 30 min on ice, the reaction mixtures were electrophoresed on native PAGE (8 %) at 4 °C. (a, panel 1–6) Interaction of HpMutS2 and mutants with single-stranded DNA. b-g Plots of percentage of bound DNA substrate (ssDNA and Holliday junction) versus protein concentration. The percentage binding was calculated by measuring the depletion in substrate DNA considering DNA without protein as 100 %. Error bars represent standard deviation from two or more different experiments. Schematic representation of DNA substrates used are shown at the left side of figures
(§3) Radiolabeled DNA substrates (0.16 nM) were incubated with increasing concentrations of HpMutS2 and mutants in buffer A with 1X BSA (0.1 μg/μl). ATP, ADP, and ATPγS (1 mM each) were added separately to the reaction mixture. The NaCl concentration was maintained to 110 mM by adding storage buffer C to the reaction mixture. After incubation of 30 min on ice, the reaction mixtures were electrophoresed on native PAGE (8 %) at 4 °C. The gels were transferred on to Whatman 3 mm paper and dried under vacuum at 80 °C for 45 min. The gels were visualized by phosphorimaging and quantified using Image Gauge (Version 3.0). The dissociation constants were determined by non-linear regression analysis and calculated by plotting the percentage of bound DNA versus concentration of protein using “One site - Specific binding with Hill slope” equation of the GraphPad Prism 5 software.

Single-stranded DNA = assay: Electrophoretic mobility shift assay (EMSA); type: binding; conditions: for fold reduced affinity compared to wild-type: no nucleotide; for Kd: read-out: DNA binding affinity (dissociation constant)
Experimental: as §2, §3

[2] = Thermal denaturation monitored by CD at 222 nm; type: physicochemical; conditions: for temperature of 50 % unfolding: 25–80 °C; for thermal stability compared to the other variants: higher temperatures
Experimental: as §1
Freshly prepared proteins were dialyzed twice in buffer B for 4–6 h with at least two changes of the buffer. Far-UV CD spectra of proteins (1 μM) were obtained using a Jasco-815 spectropolarimeter equipped with a Peltier stage (Japan Spectroscopic Co., Japan) at 25 °C. The spectra were recorded between 200–300 nm with 20 mdeg sensitivity at a scan speed of 50 nm using 2 mm path length cuvette with a bandwidth of 2 nm. Control titrations were performed and all the CD spectra were corrected by subtracting control spectra. Thermal denaturation of the proteins was monitored at single wavelength (222 nm) by increasing temperature from 25 °C-80 °C. The percentage of unfolded protein was calculated by considering the protein at 25 °C as 100 % folded.

[3] = target: the molecule itself; assay: SEC; Superose-6 HR 10/30, buffer B (50 mM Tris pH 8.0, 100 mM NaCl), 0.3 ml/min, approximately 150 ug protein injected; mass from a plot of Ve/Vo versus log of molecular mass of standards
H. pylori strain 26695 = assay: Recombination assay (incorporation of streptomycin resistant chromosomal DNA); type: cell-based, Helicobacter pylori; conditions: for fold higher recombination / transformation frequency than the wild-type strain: HpMutS2-E413A over-expressed in the wild-type strain
Experimental: The construction of hpmutS2-disrupted strain, complements, and calculations of recombination frequencies were performed as described in [7]. Briefly, H. pylori strain 26695 was used to disrupt hpmutS2 gene by allelic replacement using a chloramphenicol resistance cassette and to generate integrations. The wild-type and mutants of HpMutS2 preceded by ureA promoter and containing an apramycin resistance cassette were integrated into a non-essential ureA locus. The correct constructions were verified by PCR and the expression of proteins was monitored by Western blots. Recombination frequencies were determined by rate of incorporation of streptomycin resistant isogenic total chromosomal DNA (200 ng) per cfu. P values were calculated using the Mann–Whitney U test. At least two independent clones of each construction were used to determine the recombination frequencies. All DNA constructs were introduced using natural transformation. H. pylori was grown on BAB plates at 37 °C under microaerophillic conditions.

| Molecule | effect of nucleotide pre-incubation on proteolysis (chymotrypsin) | susceptibility to proteolysis compared to the wild-type protein (chymotrypsin) | reduced negative ellipticity compared to the wild-type protein [1] | Kd (Holliday junction; + ADP 1 mM) [nM] | Kd (Holliday junction; + ATP 1 mM) [nM] | Kd (Holliday junction; No nucleotide) [nM] | fold reduced affinity compared to wild-type (Holliday junction) | fold reduced affinity compared to wild-type (Single-stranded DNA) | temperature of 50 % unfolding [2] | thermal stability compared to the other variants [2] | binding result [3] | fold higher recombination / transformation frequency than the wild-type strain (H. pylori strain 26695) | Kd (Holliday junction; + ATPγS 1 mM) [nM] | Kd (Single-stranded DNA; + ADP 1 mM) [nM] | Kd (Single-stranded DNA; + ATPγS 1 mM) [nM] | fold reduced ssDNA binding in presence of ATP (Single-stranded DNA; ATP 1 mM, at lower concentrations of protein) | Kd (Single-stranded DNA; No nucleotide) [nM] | Relative value (recombinant frequency relative to Wt) (H. pylori strain 26695; Wt = 1) | Recombinant frequency (H. pylori strain 26695; streptomycin resistance colonies per recipient cfu, average (±standard deviation)) | Kd (Single-stranded DNA; + ATP 1 mM) [nM] |
| --- | --- | --- | --- | --- | --- | --- | --- | --- | --- | --- | --- | --- | --- | --- | --- | --- | --- | --- | --- | --- |
| B1 | only a slight effect | much more resistant | 30–34% | 46.4 ± 5.6 | 31.7 ± 3.34 | 30.8 ± 1.97 | ~ 2 fold | > 4 fold | ~ 50 °C | more unstable | binds | ~ 5 fold | – | – | – | – | – | – | – | – |
| B2 | proteolysis was significantly reduced | – | – | 22.6 ± 1.39 | 20.8 ± 2.95 | 14.4 ± 0.82 | – | – | ~ 50 °C | – | – | ~ 8 fold | 22.5 ± 1.23 | 17.3 ± 2.89 | 11.4 ± 0.19 | ~ 5 fold | 21.5 ± 2.28 | 7.9 | 39.2 (±29.2) x10^−4 | – |
| B3 | only a slight effect | slightly more susceptible to proteolysis | no significant changes | 34 ± 5.31 | 32 ± 4.34 | 21.4 ± 0.93 | ~ 1.5 fold | ~ 1.5 fold | – | more stable at up to 80 °C | – | – | – | 23.9 ± 2.91 | – | – | 32.4 ± 3.32 | – | – | 30.7 ± 3.43 |
